Values quoted from earlier work in US20190350851A1, “DOSE RESPONSE, SURFACE MODIFIED NANOTUBES” (MOLECULAR REBAR DESIGN, LLC, priority 2018, published 2019).

B1: Myoglobin (protein, UniProt P02144 2-154, looked up)
Myoglobin: GLSDGEWQLVLNVWGKVEADIPGHGQEVLIRLFKGHPETLEKFDKFKHLKSEDEMKASEDLKKHGATVLTALGGILKKKGHHEAEIKPLAQSHATKHKIPVKYLEFISECIIQVLQSKHPGDFGADAQGAMNKALELFRKDMASNYKELGFQG

settings: in water

Row | Molecule | Hydrodynamic Radius [nm]
1 | NC(=O)CC[C@@H]1NC(=O)[C@H](Cc2ccccc2)NC(=O)[C@H](Cc2ccc(O)cc2)NC(=O)CCSSC[C@@H](C(=O)N2CCC[C@H]2C(=O)N[C@H](CCCN=C(N)N)C(=O)NCC(N)=O)NC(=O)[C@H](CC(N)=O)NC1=O [Desmopressin, reference compound] | 0.88
2 | O=C(O)c1cccnc1 [Niacin, reference compound] | 0.33
3 | CN1CCCC1c1cccnc1 (centres unmarked) [Nicotine, reference compound] | 0.38
4 | Bovine serum albumin | 7.0
5 | Cytochrome C | 2.64
6 | Insulin | 2.1
7 | B1 | 3.34

same assay, conditions: in water; listed as bovine serum albumin

Row | Molecule | Hydrodynamic Radius [nm]
8 | Bovine serum albumin | 7
